Experimental data taken from patent US11130783B2, “CD40 targeted peptides and uses thereof” (Regents of the University of Minnesota, priority 2018, dated 2021).
“Also recorded” adds a separate entry of the source.

Assays:
B cells = assay: Peptide blocking of B cell activation by recombinant hCD40L (MHC class II expression); assay type: cell-based, Rhesus macaques; conditions: peptides at 30 μM, pre-incubation then recombinant hCD40L
Protocol: The ability of the newly identified peptides to block B cell activation by CD40L was analyzed in a peptide blocking study. Briefly, B cells were pre-incubated with newly identified peptides for 30 minutes before stimulation with rhCD40L. Activation of the B cells was analyzed by measuring the expression levels of MHC class II molecules on the cell surface by flow cytometry.
The ability of CD40-binding peptides 1-7 as listed in Table 1 to block B cell activation was assessed by analyzing the expression of MHC class II molecules on the B cell when subsequently incubated in the presence of recombinant hCD40L. Briefly, B cells were purified from 3 RM PBMC by magnetic sorting. B cells were incubated with peptides at 30 μM for 15 minutes at 37° C., then activated for 30 minutes with recombinant hCD40L, and then analyzed for expression of MHC class II by staining the cells with specific antibody. Stained cells were acquired on a 3-laser BD Canto II instrument (BD Bioscience). A minimum of 200,000 events were acquired with FACSDIVA 6.1.3. FACS analysis was performed with FlowJo Version 10 software.

CD4, CD8 and CD20 cells = assay: One-way CFSE mixed lymphocyte reaction (MLR), T and B cell proliferation; assay type: cell-based, Rhesus macaques; conditions: peptides at 30 μM, 6 days, CFSE-low cells, PBMC from 5 RM
Protocol: The ability of the CD40 targeting peptides to block CD40-CD40L signaling and inhibit T and B cell proliferation was assessed in a one-way CFSE-MLR. Each of the FIGS. 3A-3E show results of CFSE-MLR performed on PBMC obtained from a different Rhesus monkey. […] The levels of T cell and B cell proliferation was 35-46% in all the 5 animals and for sake clarity was capped at 25% in the figure for better visualization.
In order to determine the functional effect of co-stimulation blockade with peptides targeting CD40, one-way mixed lymphocyte reactions (MLR) was performed. CFSE-labeled PBMC from 5 different RM were stimulated with irradiated PBMC for 6 days. Stimulation with PHA was used as positive control. […] The cells were incubated in the presence of peptides at 30 μM. Following stimulation, PBMC were stained with antibodies specific for CD4, CD8 and CD20 and proliferating cells were quantitated by determining the frequency of CFSE-low CD4, CD8 and CD20 cells. Stained cells were acquired on a 3-laser BD Canto II instrument (BD Bioscience). A minimum of 200,000 events were acquired with FACSDIVA 6.1.3. FACS analysis was performed with FlowJo Version 10 software.

recombinant human CD40 = target: T1, recombinant human CD40 (Homo sapiens, UniProt P25942); assay: ELISA for specificity of peptide binding to CD40; conditions: for affinity to bind to CD40 compared to the control Peptide 1: summary of the study; for binding affinity to CD40 by ELISA: FLAG-tagged rhsCD40 1 μg/ml, optical density at 450 nm
T1 construct: probed with FLAG-tagged rhsCD40 (1 μg/ml; Alexis); purchased Alexis
Protocol: Binding of the identified peptides to CD40 was analyzed by ELISA. Briefly, plates were coated with […] and then incubated with identified peptides and detected using Flag-tagged rhsCD40.
In order to confirm the specificity of the peptides to interfere with CD40:CD154 interaction, the specificity of peptides 1-7 as listed in table 1 to bind to human […] by ELISA was tested. Briefly, 96 well ELISA (Nunc Immunolon) plates were coated with the peptides in carbonate buffer. The wells are washed and probed with FLAG-tagged rhsCD40 (1 μg/ml; Alexis) and developed with HRP conjugated rabbit anti-FLAG antibody. The plates were washed and the enzymatic activity was determined using 3,3′,5,5′-tetramethyl-benzidine substrate for 15 minutes and the reaction was stopped by the addition of 2 M H2SO4, and optical density was measured at 450 nm, with the correction wavelength set at 620 nm.

[1] = target: T2, CD40 on mononuclear cells (Macaca mulatta, UniProt A0ACM8QRX8); assay: Binding of fluorochrome tagged CD40 targeting peptides to PBMC by flow cytometry; design: species or system Rhesus macaques; conditions: 5 μM fluorochrome tagged peptide, 30 minutes at 4° C.
T2 construct: peripheral blood mononuclear cells (PBMC) purified from 2 Rhesus macaques (RM); endogenous in cells; host or cells: PBMC from Rhesus macaques
Protocol: Binding of the CD40 targeting peptides was analyzed by incubating 5 μM of various fluorochrome tagged CD40 interacting peptides with PBMC from rhesus monkeys for 30 minutes at 4° C. and analyzed by flow cytometry.
In order to screen the ability of the cyclic peptides to bind to CD40, peripheral blood mononuclear cells (PBMC) purified from 2 Rhesus macaques (RM) were incubated with 5 μM of fluorochrome tagged CD40 interacting peptides, Peptide 1-7 listed in Table 1 for 30 minutes at 4° C. The cells were washed 3× in PBS and analyzed by flow cytometry. Stained cells were acquired on a 3-laser BD Canto II instrument (BD Bioscience). A minimum of 200,000 events were acquired with FACSDIVA 6.1.3. Mean fluorescence intensity of the peptide binding to the cells were determined using FlowJo 10.1. software (Tree Star; Ashland, OR, USA). […] 1-7 bind to the PBMC but at various intensities, confirming the ability of the synthetic peptides to bind to CD40 on mononuclear cells.

T2 sequence (A0ACM8QRX8 21-278): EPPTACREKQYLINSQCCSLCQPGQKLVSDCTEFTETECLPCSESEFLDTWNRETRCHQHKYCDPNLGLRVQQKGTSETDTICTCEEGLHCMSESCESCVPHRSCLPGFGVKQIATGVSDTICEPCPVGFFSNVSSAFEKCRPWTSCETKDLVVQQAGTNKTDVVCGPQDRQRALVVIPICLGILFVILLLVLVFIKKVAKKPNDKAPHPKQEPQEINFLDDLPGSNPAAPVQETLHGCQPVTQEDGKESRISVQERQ
T1 sequence (P25942 21-193 limits assumed): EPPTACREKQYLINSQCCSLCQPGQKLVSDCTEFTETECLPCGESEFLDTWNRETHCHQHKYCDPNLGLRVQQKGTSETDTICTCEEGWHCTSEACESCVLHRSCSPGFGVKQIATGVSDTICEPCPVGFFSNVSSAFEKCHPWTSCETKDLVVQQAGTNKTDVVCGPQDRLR

Sequence	ability to block B cell activation (MHC class II expression) (B cells)	suppression of T and B cell (CD4, CD8, CD20) proliferation (CD4, CD8 and CD20 cells)	affinity to bind to CD40 compared to the control Peptide 1 (recombinant human CD40)	binding affinity to CD40 by ELISA (recombinant human CD40)	binding to PBMC / mononuclear cells (mean fluorescence intensity) [1]	suppression of T and B cell (CD4, CD8, CD20) proliferation (CD4, CD8 and CD20 cells; listed as Peptide#2)	suppression of T and B cell (CD4, CD8, CD20) proliferation (CD4, CD8 and CD20 cells; listed as Peptide #3)
LVNWADKAFYTTSNN [Peptide 5]	complete abrogation of T and B cell proliferation as well as activation of B cells	complete abrogation of T and B cell proliferation	higher affinity	–	–	–	–
VLNWADKAYFTMSQN [Peptide 4]	–	–	–	lowest binding affinity	–	–	–
VLQWAEKGYYTMSNN [Peptide 1, reference compound]	–	–	–	high binding affinity	high binding affinity	–	–
VLQWAERGFYTTSNN [Peptide 2]	complete abrogation of T and B cell proliferation as well as activation of B cells	higher efficacy compared to the other peptides; also recorded: complete abrogation of T and B cell proliferation	higher affinity	specific binding to human CD40	–	inhibited T and B cell proliferation significantly better than the CD40 targeting peptide identified earlier	–
VVQWAEKGFFTMSNN [Peptide 3]	complete abrogation of T and B cell proliferation as well as activation of B cells	higher efficacy compared to the other peptides; also recorded: complete abrogation of T and B cell proliferation	higher affinity	specific binding to human CD40	high binding affinity	–	inhibited T and B cell proliferation significantly better than the CD40 targeting peptide identified earlier
VVQWAEKGYYTMSQN [Peptide 7]	–	–	–	specific binding to human CD40	least binding affinity	–	–
